# The DeepSol protein solubility set
# Assay: soluble on expression in E. coli; label from the status in PepcDB or PDB records
row,Sequence,soluble on expression in E. coli
1,MNKSNNEPFNQVLDKHLSRRNFVKSGLGLGAMTAFAGMGLTGCGSDSSSSPIPVDPVPPLPPTKSSAKLNFTSVKGARLNAVVVPEGYSAQVLAPWGTPLNAKAAPWKADGSNTADDQANSVGMHHDGMHFFPLNQAGDDGLLCINHEYIDEIALHPNGPTVDATTGLRTIVDEVRKEINAHGVSVVRIKLTNNQWEVVYNDKHNRRFTGATVMDIAGPLAYSPLLETRYSPDGSQARGTLNNCGNGYTPWGTYLTCEENWPEYFVNRSTLTRDQIRIGISKTSSRYGWDDLAGQDEERLDEFSRFDVTPKGVSARDDYRNEANGHGYIVEIDPYNPTSRAIKRTALGRFRHEGCTFGKLSEGQPVVFYSGHDARFEYLYKFVSAAPWNPQDANSSNRLEIGDKYMNEGTLYAAKFNENGVGAWLPLTLDSQTTDGKTLGNSFASLADIILNTAGAADLLGATPMDRPEWCAVDPFTGSVYLTLTNNSKRTEANPANPRLKNNFGHIIRWDEADKETEFTWDIFVFGSPSDGNAETNLSGLTDLNQFASPDGLAFDKRGILWVQTDNGAEEVAEETNDQMLAIVPSTLLDSANKQTSVTAKNQMELKRFFVGPNDCEVTGFAISPDYKTVFANIQHPGNWPYSNNAAEVTPTGVVLRPRAATVVIRKLDGKEVAVLEHHHHHH,soluble
2,MNLDKPLLPGQVIGIIGGGHLAKMMALSAREMGFRVGVLDPQIDCPAAQVADWQLLGAYNDPEALEKLAKRAQVITYEFEHADVDALTAIQHLANIPQGTDILAITQDRLMEKSFLEDNNIVIAPYATIVSPTDIQEAIDGIGYPCILKNTRGEGRYVLHSTSDLAPSMNLLREGTCVLEAWIPYEKELSVLISGNGRGEFATFPVVETIKKERKLHETIAPARIDDEVSGELQRIAKVIAKAVGLVGTLSIEMFYTETGGIYVNKILPRPEDAGNFSIDACSFSQYDTHIRGLCNWPMPTIQLLSEAVTVNVLGNEAYETMDIINEHPDWHFHYYGHSEAKAQRAMGHITILTKEIDETLEEIKETKIWS,not soluble
3,MNLDLTAQKVRLSWKDILWGYGNKYLGWADVAAYARKMTLSDHDERVFKLSLINKSNILELKPVLEDLASEMRDYSPKNWLYVLLSDVFHRKEEFEDPLGEVEKIYADFDYPEEIESFVRYMPPKDGYIPSAHTYEENIARLYSHWEHYLNNGGGQG,not soluble
4,MNLDTPLADGLERAKRFEQGLQQVVLGQERPIRLLTLAVFARGHALLEGGVGVGKTTLLRAVARGIGGDYERIEGTIDLMPNDLVYYTYLDEQGRPGVAPGPLLKHGEQLSIFFFNEINRARPQVHSLLLRVMAERSVSAFNREYRFPYLQVFADRNRVEKEETFELPAAARDRFMLEIAIEPPADPAHIDQILFDPRFYDPDRLVASAPADTLSFRELNGIAEALQGGIHVSARLRSYVQDLWRATRRPEDFGIALHEADSGDMIEAGSSPRGMSYLVRLARVQAWLSGRDRVEPEDVQYVFAPAVGHRIFLKPVYEYRRAELIPELVGKLIRRIAAPLEHHHHHH,not soluble
5,MNLKQAFIDNNSIRLGLSADTWQEAVRLAVQPLIDSKAVTSAYYDAIIASTEKYGPYYVLMPGMAMPHAEAGLGVNRNAFALITLTKPVTFSDGKEVSVLLTLAATDPSIHTTVAIPQIVALFELDNAIERLVACQSPKEVLEMVEESKDSPYLEGMDLNA,soluble
6,MNLMDLANEHDALILAHNYQTPEIQDVAHHVGDSLALAKIAAESQASTIVLCGVYFMAETTKILSPEKRVIIPEPEAGCSLASSITAEQLRAWKAEHPEAAVVAYVNTTAEVKALSDVCCTSSNAVRVVESIDPDRDILFLPDQFLGAHVQRETGRKNIHVWLGECHVHADISPTHITEMAHNNPQADLYVHPECGCTTSALWLASQGDIPQARILSTGGMMEAARKTAASTVLVATEIGMLHQLRKANTATDFIPVNPYAACPFMQMITMEKLEKALVEGHHEVHVDPVLAQRARGAVEAMITL,not soluble
7,MNLNIDWSKDFQEFQEILNSGIHPEWLYCAKANLVLEPAYTGEGKQFFSTQDIIYASKIIPFFLEHHHHHH,not soluble
8,MNLNYKFERLYRVLFNEEMFYVAYQNIYSKTGNMTAGADGKTIDGMSIDRVEQLIGSLKNETYQPNPSKRTYIPKKNGKKRPLGIPSFDDKLVQEVVRMILEAIYEGSFEHTSHGFRPKRSCHTALIDIQKTFTAVKWFIEGDIKGFFDNINHDVLINILRERIADERFLRLIRKFLNAGYVEDWVFHRTYSGTPQGGIISPILANIYLDKFDKYIKEYINRFNKGVTRKGDARYKLYEQRRYRLAKKLKNEKDVKVRKQMTAEIKRLREERNNYPARNEMDSSIKRLKYVRYADDFLIGITGNLEDCKTVKEDIKNYLNEALKLELSDEKTLITNAQKPAKFLGYDVFIRRCNDLRKDKYGKTVRAFGHKPVLYLNFETMRKKLFDYKAARIAVVNGKEVWKSIVRTYMLNLDDLEIVSQFNAEIRGFYNYYSIANNSYVINSFYHIMSYSMYKVFANKYKSSVKKILLKYKKNKVFQVAYENSKGKTLYQSFYHDGFKRKKVAGNIYCDTIPRTVSITGGRNSLMERLKLQVCELCGATDKLEMHHVRKLKDLKGKSDWEKKMIARRRKTLAVCSKCHAKIDPDRRIRLNLEHHHHHH,not soluble
9,MNLVHTPNANRLHIALFGKRNSGKSSLINALTGQDTALVSDTPGTTTDSVQKAMEIHGIGPCLFIDTPGFDDEGELGNRRIERTWKAVEKTDIALLLCAGGGSAEETGEPDFTEELHWLEQLKAKNIPTILLINKADIRKNTASLAIRIKETFGSQPIPVSAKEKTGVELIRQAILEKLPEDFDQQSITGSLVTEGDLVLLVMPQDIQAPKGRLILPQVQTMRELLDKKCLIMSCTTDKLQETLQALSRPPKLIITDSQVFKTVYEQKPEESRLTSFSVLFAGYKGDIRYYVKSASAIGSLTESSRVLIAEACTHAPLSEDIGRVKLPHLLRKRIGEKLSIDIVAGTDFPQDLTPYSLVIHCGACMFNRKYVLSRIERARLQNVPMTNYGVAIAFLNGILNQIEYLEHHHHHH,not soluble
10,MNLYSLLLSLITGCFLLAQGGTSFSSPVETEKSAVTAQSILEKADEIRFPQDSFQVNVAIRTAAPDHAEDLYRYQVLSKGNENSIVMITEPASERGQAILMKGRDLWVFMPSVSQPIRLSLSQRLTGQVANGDIARANFTGDYHPQLLRNESIDDEDYYVLELTGIDRSVTYQKVLLWVNQSNFRPYKAEFYSVSGRLLKTSRYENFDNILGEMRPTRIIMEDALKSGEVSVLDYSDMKLRDLPDKIFTKDYLKRLE,not soluble
11,MNMEEITPVDILLQLVKMGKVDPWNIDIVDLTEKYIKMLREMQELDLRISARAILAASILVRMKSEALLRGEEEENKRGEEEKIKVDVDPLVPPLRRVERYYTLDDLIEALMDALEEAEKRKPKKKKKVEIDEEIFVVDDFRVDIEKYVEELYKVVKKIYEKTKTPIKFWDLVPDVEPKIIARTFLYLLFLENMGRVEMIQEEPFGEILVVPV,soluble
12,MNMPMTERIRAGKLFTDMCEGLPEKRLRGKTLMYEFNHSHPSEVEKRESLIKEMFATVGENAWVEPPVYFSYGSNIHIGRNFYANFNLTIVDDYTVTIGDNVLIAPNVTLSVTGHPVHHELRKNGEMYSFPITIGNNVWIGSHVVINPGVTIGDNSVIGAGSIVTKDIPPNVVAAGVPCRVIREINDRDKHYYFKDYKVESSV,soluble
13,MNNIPVEIRLLKNRTVLVLTYGDEPKNLPAEFLRVYSPSAEVRGHGVGQDVLQTGKADVQIADLQPVGQYALKISFSDGHDSGLYDWAYLHRLAYGYDAMWQEYLDKLAAAGASRFEEK,not soluble
14,MNNKKPVCAEGMVKMEKKSLLILGTASHVGKSSVVTAICRILSRSYRVAPFKAQNMSLNSWITKDGKEIGIAQAIQAKAAGTEPTADMNPVLLKPKGDCVSQVVLLGEPYADKSAGQYYDSIEEMHAVLKGALERLWKEHDIIVMEGAGGAAEINLYERDIVNVGTARLTKAPIILVGDIERGGVFASLYGTIALLPEDVRKNVKGFIINKFRGDIEILRPGLKQLEDKTGIPVLGVLPHFKLRIPSEDSVSLGDKEDSKAEKEIEVAVIRLPRISNFTDFEPLEGLVKVRYVDINEELGNPDAIMIPGTKNTVNDLLDLRASGMDKKIQAFKGKVPIFGICGGYQMLGRTIFDSGVENGVEAEFEGLGLLDIGTRFGEYKKRTVQVTKKVNGYGPILRPIDGEEIKGYEIHMGVTDSNRTVFGDDGAIDEDGFVIGTYLHGLFDNRNIRNALVRYLYEKKGLEYEPDEAISENDAYEELANVVEQNIDMEKLFEIAGV,not soluble
15,MNNKLKTQAVEQLFQAILSLKDLDEAYDFFEDVCTINEILSLSQRFEVAKMLREHRTYLDIAEKTGASTATISRVNRSLNYGNDGYDRVFERLGMLEKESEDNK,soluble
16,MNNKTEQGNDAVSGQPSIKGQPVLGKDDAPVTVVEFGDYKCPSCKVFNSDIFPKIQKDFIDKGDVKFSFVNVMFHGKGSRLAALASEEVWKEDPDSFWDFHEKLFEKQPDTEQEWVTPGLLGDLAKSTTKIKPETLKENLDKETFASQVEKDSDLNQKMNIQATPTIYVNDKVIKNFADYDEIKETIEKELKGKLEHHHHHH,soluble
17,MNNLIRLRDGVAEVCRDDPWQLLRELPDALPPGPLLLPLAAWLERRGEAGAAAPWLAPDDEVEALLPHFAELPLIAVDFPSFRDGRGYSLAYLLRVRLGWSGELRAVGDVLRDQLSHMRQCGFDAFAVREDKNVEDALKGLAGLSVLYGRSAIEPRPLFRRR,not soluble
18,MNNNLQRDAIAAAIDVLNEERVIAYPTEAVFGVGCDPDSETAVMRLLELKQRPVDKGLILIAANYEQLKPYIDDTMLTDVQRETIFSRWPGPVTFVFPAPATTPRWLTGRFDSLAVRVTDHPLVVALCQAYGKPLVSTSANLSGLPPCRTVDEVRAQFGAAFPVVPGETGGRLNPSEIRDALTGELFRQG,soluble
19,MNNNTLSDDNLYNIENWGEGYFRINSKGNIEISKKPGKPGVELQTIVDAADRAGLHLPLLIRCSDILHDRVHRIYQAFTQAREDTCYAGNYQLVYPIKVNQEQSVVRELLKSPDNQIGLEAGSKPELMAVIGMLGDHQSTIVCNGYKDTSYIRTALIAQQMGHKVFIVIEKKSELDIILKESARLQIKPTLGVRIRLVSKSAGKWENTGGVKSKFGLNAKQVLELILQLKANDMLDCLQLMHCHLGSQIANIHDIRHCMQEVARYYIELRQLNAPIGTIDVGGGLSVDYEGTRSNKGCSMNYSLVEYATHIMLALKHLCQEAEISEPDLISESGRALTAHHAVLISNITDVEIINKAPVLPEISEDDSHVIRDIYDTYQAITDSSPTEIYNYAAHSLNEAHSLFKHGVISLQEKAKVEAFYTNICMEIKDKLDEENPSEKALLMRINECMAAKIFCNISFFQSIPDAWAIGQIFPVAPISQLNRTLSMHSILQDLTCDSDGTIKQYPGSSCVTTTLMLPSYDINNPYNIGFFLVGAYQEILGNLHNLFGDTNSLDVKLSDDGQFELDDLVSGDTVTNVLNLAHFDTKKLIQSYEKQLIKSELPKEKALSYLNELRSIFSQLTYLDGNIAQLEHHHHHH,soluble
20,MNNREKEILAILRRNPLIQQNEIADMLQISRSRVAAHIMDLMRKGRIKGKGYILTEQEYCVVVGTINMDIRGMADIRYPQSASHPGTIHCSAGGVGRNIAHNLALLGRDVHLLSVIGDDFYGEMLLEETRRAGVNVSGCVRLHGQSTSTYLAIANRDDQTVLAINDTHLLEQLTPQLLNGSRDLLRHAGVVLADCNLTAEALEWVFTLADEIPVFVDTVSEFKAGKIKHWLAHIHTLKPTLPELEILWGQAITSDADRNTAVNALHQQGVQQLFVYLPDESVYCSEKDGEQFLLTAPAHTTVDSFGADDGFMAGLVYSFLEGYSFRDSARFAVACAAISRASGSLNNPTLSADNALSLVPMV,not soluble
